# T1: APRIL (Acro Biosystems, Cat: APL-H52D1) (UniProt O75888 115-250, limits assumed)
# T1 construct: also called ARPIL
# T1 sequence (looked up): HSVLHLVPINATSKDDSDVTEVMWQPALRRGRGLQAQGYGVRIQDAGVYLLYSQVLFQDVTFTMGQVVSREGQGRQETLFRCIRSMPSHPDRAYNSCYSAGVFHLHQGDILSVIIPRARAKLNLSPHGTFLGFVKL
# B1: Telitacicept (RCT-18) (Fc fusion)
# chain: SRVDQEERFPQGLWTGVAMRSCPEEQYWDPLLGTCMSCKTICNHQSQRTCAAFCRSLSCRKEQGKFYDHLLRDCISCASICGQHPKQCAYFCENKLRSPVNLPPELDKTHTCPPCPAPEAEGAPSVFLFPPKPKDTLMISRTPEVTCVVVDVSHEDPEVKFNWYVDGVEVHNAKTKPREEQYNSTYRVVSVLTVLHQDWLNGKEYKCKVSNKALPSSIEKTISKAKGQPREPQVYTLPPSRDELTKNQVSLTCLVKGFYPSDIAVEWESNGQPENNYKTTPPVLDSDGSFFLYSKLTVDKSRWQQGNVFSCSVMHEALHNHYTQKSLSLSPGK
# notes: Positive control TACI-Fc; also called RC18
# Legend:
# [1] = target: recombinant human BAFF (R&D cat: 7537-BF-025/CF) (human, UniProt Q9Y275 134-285); test: cell-based or functional assay
# [2] = target: BAFF (PeproTech, Cat: 310-13) (UniProt Q9Y275 134-285); test: ELISA, BAFF coated at 1 ug/mL, anti-human Fc-HRP, OD450
# Procedure: (§1) The capabilities of TACI-BCMA fusion proteins (B575701, B575702, B575703, and B575704) to bind to BAFF and APRIL were assessed by ELISA as follows: BAFF (PeproTech, Cat: 310-13) or ARPIL (Acro Biosystems, Cat: APL-H52D1) was diluted to 1 μg/mL with PBS, and a 96-well plate (Costar, Cat: 3590) was coated with the dilution overnight at 4° C. The plate was washed with PBST and blocked with Blocking Buffer (PBST containing 1% BSA) at 37° C. for 1 h. The plate was tapped. The test antibodies were diluted with Blocking Buffer. Incubation was performed at 37° C. for 1.5 h. The plate was washed with PBST. An HRP-mouse anti-human Fc antibody (GenScript, Cat: A01854-200) was diluted with Blocking Buffer. Incubation was performed at 37° C. for 40 min. The plate was washed with PBST. 100 μL of TMB substrate solution (Biopanda, Cat: TMB-S-003) was added, and color development was performed at 37° C. for 3 min. 100 μL of ELISA stop solution (Solarbio, Cat: C1058) was added. OD450 was measured.
# The capability of B575702 to bind to BAFF was consistent with that of B575704, and their EC₅₀ values decreased to ¼ of that of telitacicept. The capability of B575701 to bind to BAFF was consistent with that of B575703, and their EC₅₀ values decreased to ½ of that of telitacicept.
# [3] = target: T1, APRIL (Acro Biosystems, Cat: APL-H52D1); test: ELISA, APRIL coated at 1 ug/mL, anti-human Fc-HRP, OD450
# Procedure: as §1, with “B613301, B613302, and B613303, which are” for “TACI-BCMA”, “of anifrolumab” for “(B575701, B575702, B575703,”, “TACI-BCMA,” for “B575704)”, “follows: [0548]” for “follows:”
# recombinant human BAFF (R&D cat: 7537-BF-025/CF), sequence (Q9Y275 134-285 limits assumed): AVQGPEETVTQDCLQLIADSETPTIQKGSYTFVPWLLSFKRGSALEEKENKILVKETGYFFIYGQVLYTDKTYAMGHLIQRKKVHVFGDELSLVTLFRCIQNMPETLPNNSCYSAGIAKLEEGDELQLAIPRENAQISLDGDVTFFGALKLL
# BAFF (PeproTech, Cat: 310-13), sequence (Q9Y275 134-285 limits assumed): as above
binder,measurement,setting,value
B1,"Flow cytometry proliferating B cell proportion (%), mean value, BAFF-induced, drug at 10 nM (IgG1: 40.15)",[1],36%
same,"Flow cytometry proliferating B cell proportion (%), mean value, BAFF-induced, drug at 100 nM (IgG1: 40.60)",[1],30.7%
same,"Flow cytometry proliferating B cell proportion (%), mean value, BAFF-induced, drug at 1000 nM (IgG1: 33.97)",[1],24.3%
same,EC50,[2],0.713 nM
same,Emax,[2],2.28 nM (as printed)
same,EC50,[3],1.25 nM
same,Emax,[3],2.5

# — US20260056186A1 (JIANGSU HENGRUI PHARMACEUTICALS, published 2026)
